According to patent publication US20220119492A1 (MEDIKINE, published 2022):
Bridge positions count the residues as written; N and C are the ends. Ends that are not written are not given here.

T1: human IL-2Rβ (CD122 protein, Fc Tag) (27-239) (human, UniProt P14784 27-239)
T1 construct: range 27-239; Bought protein; also called hu-IL-2Rβ subunit; IL-2Rβ subunit; not shown: Fc tag of the bought protein
T1 sequence (looked up): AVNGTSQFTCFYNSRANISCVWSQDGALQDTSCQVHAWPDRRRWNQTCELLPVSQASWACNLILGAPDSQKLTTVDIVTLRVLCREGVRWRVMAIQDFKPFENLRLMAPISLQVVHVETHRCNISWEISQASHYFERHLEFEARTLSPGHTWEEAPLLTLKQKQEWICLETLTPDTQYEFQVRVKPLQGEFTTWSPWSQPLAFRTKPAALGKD


target: T1, human IL-2Rβ (CD122 protein, Fc Tag) …; assay: phage ELISA competition
How it was run: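 IC50 comes from absorbance measured across a dilution series of ligand in a competitive binding ELISA against human IL-2Rβ-Fc, with a phage tracer as the competitor. The phage tracer (50 μL) was added with no wash step for 45 min at 4° C. Detection of bound phage used TMB for 1 to 15 min at 25° C, then stop solution and a reading at 450 nm.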

IC50 [µM] | Binder
< 100 | WYPCWLAQVGELCDLD [SEQ ID NO 2885]
< 100 | WYPCWMAQLGELCDLDEAPVQP [SEQ ID NO 2701]
< 100 | WHPCWMARLGELCDLD [SEQ ID NO 2710]
< 100 | QGTKWHWNPCWMAQLGELCDLD (disulfide 10-19 (inferred)) [SEQ ID NO 2711]
< 100 | SGTGPAWYPCFLASLGQLCDLE [SEQ ID NO 2713]
< 100 | RVSYPCWLARLGELCDMDLEE [SEQ ID NO 2707]
< 100 | YAEWYPCWMARVGEVCDLEVTP [SEQ ID NO 2704]
< 100 | WYPCWMAQLGELCDMD [SEQ ID NO 2706]
< 100 | QVMRLWYPCWMAQLGELCDLE [SEQ ID NO 2700]
< 100 | RSGDKAFFPCWLAQLGDLCDLD [SEQ ID NO 2705]
< 100 | WLPCWMADVGDLCDLD (disulfide 4-13 (inferred)) [SEQ ID NO 2709]
< 100 | TESWYPCWLANLGDLCDLEWSA (disulfide 7-16 (inferred)) [SEQ ID NO 2708]
< 100 | WYPCWIARVGELCDLE [SEQ ID NO 2884]
< 100 | WHPCWIAHLGELCDLE [SEQ ID NO 2718]
< 100 | WYPCWLAHLGELCDLA [SEQ ID NO 2725]
< 100 | WYPCWLAHLGELCDLE [SEQ ID NO 2699]
< 100 | WYPCWMAHLGELCDLE [SEQ ID NO 2804]
< 100 | SATWYPCFLANLGELCDLEQEN [SEQ ID NO 2703]
< 100 | KNGPKSWYPCWMAQVGDLCDLD [SEQ ID NO 2712]
< 100 | RDIWWPCWVAQLGELCDLDDPQ [SEQ ID NO 2702]

Continued, binder first:

Binder | IC50 [µM]
WYPCWLAQLGELCDLD [SEQ ID NO 2691] | < 100
WYPCWIARVGELCDLEEGPVNR [SEQ ID NO 2669] | < 100
WDGWECGMDHDGWVCEFWGE [SEQ ID NO 2655] | < 100
MLGEWLCEMDQLGYLCYLDHGD [SEQ ID NO 2654] | < 100
SRFWQPCWMAQLGELCHLDPQM [SEQ ID NO 2644] | < 100
WYPCGVAQPGDLCDLE [SEQ ID NO 2653] | < 100
RQVPKQWYPCWMAALGELCDLE (disulfide 10-19 (inferred)) [SEQ ID NO 2698] | < 100
RRWLPCWMAHVGELCDLELGN [SEQ ID NO 2684] | < 100
RWPWYPCEIARIGELCDLEQAN [SEQ ID NO 2674] | < 100
WHPCWLARVGDLCDLD [SEQ ID NO 2696] | < 100
QTGSYPCWIAHLGELCDLEGSA (disulfide 7-16 (inferred)) [SEQ ID NO 2649] | < 100
EQRNRQWWPCWLARLGDLCDLD [SEQ ID NO 2690] | < 100
AVEFYPCWLARIGELCDLVEP [SEQ ID NO 2670] | < 100
SHLWFPCWMAQLGELCDLEGGP [SEQ ID NO 2683] | < 100
HGRWFPCWMAQVGDLCDLEHSN [SEQ ID NO 2676] | < 100
WYPCSIALLGELCDLESVHEKS [SEQ ID NO 2689] | < 100
DLWQPCWMARLGELCDLKG [SEQ ID NO 2651] | < 100
HGGVIGWYPCWMAKVGELCDLD [SEQ ID NO 2688] | < 100
WYPCWIAQLGELCDLDAKGQRR [SEQ ID NO 2667] | < 100
TGWWYPCWMAQLGELCDLQQT [SEQ ID NO 2650] | < 100
YLNFNPCWTAQLGELCDLASGE [SEQ ID NO 2645] | < 100
TNNFYPCWLAKLGDLCDFDDLN [SEQ ID NO 2668] | < 100

Binder | IC50 [µM]
AHWSQPCWTAQLGELCDLDMGD (disulfide 7-16 (inferred)) [SEQ ID NO 2647] | < 100
SRSAGEYYPCWLAQLGELCDLA [SEQ ID NO 2697] | < 100
RSLRESWFPCWMAKLGDLCDLE [SEQ ID NO 2695] | < 100
STGWYPCWIAEFGELCDLVKPH [SEQ ID NO 2646] | < 100
HPVRYPCWVAQLGELCDLENGN [SEQ ID NO 2648] | < 100
RPSWAPCWLAQVGELCDLDHPE [SEQ ID NO 2693] | < 100
ETLGSVWYPCWIASIGELCDLD [SEQ ID NO 2679] | < 100
WYSCWIAQLGELCDLDDMGDRV [SEQ ID NO 2680] | < 100
RREWYPCWIAQVGELCDLPLI (disulfide 7-16 (inferred)) [SEQ ID NO 2673] | < 100
WFPCWLAQLGELCDKE [SEQ ID NO 2681] | < 100
WYPCWIARVGELCDME [SEQ ID NO 2672] | < 100
WYPCWIAHLGELCDLE [SEQ ID NO 2671] | < 100
WYSCWIAQIGELCDLE [SEQ ID NO 2686] | < 100
MGTGWQNYCRYAQLGELCLL [SEQ ID NO 2652] | < 100
WLPCWMAHLGDLCDLE [SEQ ID NO 2692] | < 100
FGAFYPCWKAQLGELCDLEPVT [SEQ ID NO 2675] | < 100
YWCWFARVGELCDLDDGGVPS [SEQ ID NO 2685] | < 100
MNPVGTFYPCWIAKLGELCDLQ [SEQ ID NO 2687] | < 100
WYPCWLAKLGELCDLDRAEALP [SEQ ID NO 2677] | < 100
VWFPCWFAQLGDLCDLDQDP (disulfide 5-14 (inferred)) [SEQ ID NO 2678] | < 100
WYPCWIAQLGELCDLV [SEQ ID NO 2682] | < 100
ESKEPAFWPCWMAQLGDLCDLE [SEQ ID NO 2694] | < 100
